Several values for one entry are separate records, joined by “and”; a condition that tells them apart may be missing. Equal values may be shown once.
Legend:
[1] = molecular target: T1, Recombinant human LAG-3 ECD-His6 (human, UniProt P18627 23-433); test: SPR Biacore T100, antibody captured on protein A, LAG-3 ECD-His6 analyte, 25 C, 1:1 model, geometric mean of 3 runs
T1 construct: also called LAG-3-His; recombinant human LAG-3-His
T1 sequence: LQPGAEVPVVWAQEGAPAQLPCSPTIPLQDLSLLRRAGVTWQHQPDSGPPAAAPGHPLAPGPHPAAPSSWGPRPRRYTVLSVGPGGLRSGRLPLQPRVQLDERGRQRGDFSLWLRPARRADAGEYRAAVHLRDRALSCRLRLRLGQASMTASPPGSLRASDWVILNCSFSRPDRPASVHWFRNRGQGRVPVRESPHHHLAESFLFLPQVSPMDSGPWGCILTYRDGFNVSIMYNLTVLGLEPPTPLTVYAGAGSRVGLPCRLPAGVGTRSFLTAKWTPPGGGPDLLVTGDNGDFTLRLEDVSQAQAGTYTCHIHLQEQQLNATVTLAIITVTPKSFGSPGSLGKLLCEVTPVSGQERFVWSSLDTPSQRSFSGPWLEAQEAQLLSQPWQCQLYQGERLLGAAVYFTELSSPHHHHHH
Protocol: (§1) Wild type fucosylated and afucosylated antibodies were compared for their ability to bind to recombinant human LAG-3 ECD with a C-terminal His6 (SEQ ID NO:51) using the Biacore® T100 (GE Healthcare®). Protein A was immobilised on a CM5 chip by primary amine coupling. This surface was then used to capture the humanised antibodies. Recombinant human LAG-3 ECD-His6 was then passed over the captured antibodies at 32, 8, 2, 0.5 and 0.125 nM and regeneration was carried out using 50 mM NaOH. The binding curves were double referenced with buffer injection (i.e. 0 nM) and the data was fitted to the T100 analysis software using the 1:1 model. The run was carried out at 25° C., using HBS-EP as the running buffer.
(§2) In order to investigate the statistical significance of this kinetic data, this experiment was repeated 3 times with the same batch of the four antibodies and the chimeric control. KD, ka and kd parameters were each log (base 10) transformed prior to separate statistical analyses. For each parameter, a mixed model analysis of variance (‘Anova’) was performed on transformed data, including terms for Run (random block effect) and Antibody.
(§3) From the Anova, geometric means were predicted for each antibody, along with statistically plausible ranges (95% confidence intervals) for each mean. Planned comparisons of antibodies were performed within the Anova. […]

[2] = molecular target: T2, Human LAG-3 expressed on cells (human, UniProt P18627 23-525); test: cell-based or functional assay
T2 sequence (looked up): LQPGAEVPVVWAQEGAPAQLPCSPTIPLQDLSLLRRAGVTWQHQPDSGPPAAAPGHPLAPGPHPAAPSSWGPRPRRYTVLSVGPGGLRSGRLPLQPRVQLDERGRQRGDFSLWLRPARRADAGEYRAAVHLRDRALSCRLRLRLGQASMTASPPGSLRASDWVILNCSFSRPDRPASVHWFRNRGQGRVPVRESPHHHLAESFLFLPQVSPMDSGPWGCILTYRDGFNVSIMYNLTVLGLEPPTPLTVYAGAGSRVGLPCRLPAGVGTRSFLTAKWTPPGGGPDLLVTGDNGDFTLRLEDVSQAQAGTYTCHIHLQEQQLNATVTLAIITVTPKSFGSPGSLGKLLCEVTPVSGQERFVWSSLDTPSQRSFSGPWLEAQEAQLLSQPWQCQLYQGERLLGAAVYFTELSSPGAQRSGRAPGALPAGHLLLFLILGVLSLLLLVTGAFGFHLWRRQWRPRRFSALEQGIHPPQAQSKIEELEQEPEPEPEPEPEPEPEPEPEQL

[3] = molecular target: T1, Recombinant human LAG-3 ECD-His6; test: SPR Biacore T100, Anova comparison of KD on LAG-3 ECD-His6
Protocol: as §1, §2, §3

[4] = molecular target: T3, Recombinant baboon LAG-3 ECD-His6 (baboon, UniProt P18627 24-433 (human entry)); test: SPR Biacore T100, antibody captured on protein A, LAG-3 ECD-His6 analyte, 37 C, 1:1 model
T3 construct: made in house
T3 chain: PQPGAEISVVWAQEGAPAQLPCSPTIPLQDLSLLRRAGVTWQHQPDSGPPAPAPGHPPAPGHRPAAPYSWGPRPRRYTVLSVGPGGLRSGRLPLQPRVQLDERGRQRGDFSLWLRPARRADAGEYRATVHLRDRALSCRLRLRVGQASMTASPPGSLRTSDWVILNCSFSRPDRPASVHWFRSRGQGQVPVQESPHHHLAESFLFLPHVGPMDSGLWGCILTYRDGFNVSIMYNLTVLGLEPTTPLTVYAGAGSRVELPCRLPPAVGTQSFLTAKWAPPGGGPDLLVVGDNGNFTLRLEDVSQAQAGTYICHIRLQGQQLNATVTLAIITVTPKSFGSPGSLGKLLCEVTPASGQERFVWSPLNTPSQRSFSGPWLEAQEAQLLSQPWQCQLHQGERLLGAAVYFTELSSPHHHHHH
Protocol: (§4) The binding cross reactivity of anti-LAG-3 humanised antibodies for both cynomolgus macaque (cyno) and baboon recombinant LAG-3 ECD-His6 (SEQ ID NOs 52 and 53, respectively) was assessed using the Biacore® T100 (GE Healthcare®).
(§5) Protein A was immobilised on a CM5 chip by primary amine coupling. This surface was then used to capture the humanised antibodies. In-house generated recombinant cynomolgus macaque and baboon LAG-3 ECD-His6 were then passed over the captured antibodies and regeneration was carried out using 50 mM NaOH. LAG-3 ECD-His6 was passed over at 16, 4, 1, 0.25 and 0.0625 nM. The binding curves were double referenced with buffer injection (i.e. 0 nM) and the data was fitted to the T100 analysis software using the 1:1 model. The run was carried out at 37° C. using HBS-EP as the running buffer.

[5] = molecular target: T4, Recombinant cynomolgus macaque LAG-3 ECD-His6 (cynomolgus macaque, UniProt P18627 24-433 (human entry)); test: as above
T4 construct: made in house; also called cyno LAG-3
T4 chain: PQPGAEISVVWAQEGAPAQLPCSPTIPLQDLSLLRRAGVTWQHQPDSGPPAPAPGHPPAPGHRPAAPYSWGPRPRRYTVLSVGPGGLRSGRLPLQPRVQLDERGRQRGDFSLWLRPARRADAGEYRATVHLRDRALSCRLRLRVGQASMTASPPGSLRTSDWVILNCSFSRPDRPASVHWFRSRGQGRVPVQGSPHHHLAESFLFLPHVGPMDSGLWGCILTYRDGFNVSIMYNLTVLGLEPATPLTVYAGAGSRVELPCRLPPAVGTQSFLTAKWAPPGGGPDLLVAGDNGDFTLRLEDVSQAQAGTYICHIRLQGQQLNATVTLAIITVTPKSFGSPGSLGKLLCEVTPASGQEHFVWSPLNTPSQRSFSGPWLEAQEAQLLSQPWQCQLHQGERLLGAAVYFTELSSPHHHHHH
Protocol: as §4, §5

[6] = molecular target: T1, Recombinant human LAG-3 ECD-His6; test: SPR Biacore T100, Anova comparison of kd on LAG-3 ECD-His6
Protocol: as §1, §2, §3

B1: H5L7BW (antibody, human IgG1, kappa, V domains shown)
VH: QVQLQESGPGLVKPSETLSLTCTVSGFSLTAYGVNWIRQPPGKGLEWIGMIWDDGSTDYDSALKSRVTISVDTSKNQFSLKLSSVTAADTAVYYCAREGDVAFDYWGQGTLVTVSS
VL: DIQMTQSPSSLSASVGDRVTITCKSSQSLLNPSNQKNYLAWYQQKPGKAPKLLVYFASTRDSGVPSRFSGSGSGTDFTLTISSLQPEDFATYYCLQHFGTPPTFGQGTKLEIKR
notes: Afucosylated form of H5L7: plasmids encoding H5L7 expressed in the BioWa Potelligent (FUT8 knock-out CHO) cell line; also called afucosylated H5L7BW
koff [1]: 0.00441 s⁻¹
EC50, depletion of antigen specific CD4 T cells by ADCC (primary human T cells, autologous NK cells) [2]: 14 pg/mL and 3.4 ng/mL
EC50, depletion of antigen specific LAG-3 positive CD8 T cells by ADCC [2]: 0.122 ng/mL and 17.5 ng/mL
KD ratio (H5L7BW against H5L7) [3]: 1.05
Kd [4]: 0.024 nM
Kd [5]: 0.021 nM
kd ratio (H5L7BW against H5L7) [6]: 1.12

From patent publication US20230295295A1 (published 2023)
